Laboratory results published in patent US20180362629A1 (ZOETIS BELGIUM S A, published 2018).
Where a chain is given by its changes, count along the chain named. Values joined by “and” are separate entries in the source; they are usually repeats but may differ in a detail not shown here. Equal values may be shown once.

T1: recombinant canine β NGF (canine, UniProt Q29074 110-229 (pig entry))
T1 construct: also called canine NGF
T1 chain: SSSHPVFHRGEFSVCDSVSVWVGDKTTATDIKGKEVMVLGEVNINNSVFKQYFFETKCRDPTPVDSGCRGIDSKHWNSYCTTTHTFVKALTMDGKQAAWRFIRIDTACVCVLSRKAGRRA

B1: PR-1254972 (antibody, mouse IgG2b, V domains shown)
VH: EVHLVESGGGLVKPGGFLILSCAASGFTFSDYYMFWIRQTPGKRLEWVATISDGGSYTYYTDNVKGRFTISRDNVKNNLYLQMSHLKSADTAMYYCARDWSDSEGFAYWGQGTLVTVSA
VL: DVLMTQTPLSLPVSLGDQASISCRSSQSIVQSNGNTYLEWYLQKPGQSPKLLIYKVSNRFSGVPDRFSGSGSGTDFTLKISRVEAEDLGVYYCFQGSHVPFTFGSGTKLEIKR
notes: also called 20B10; ML129-20B10.3F4
B2: 20B10 hybridoma supernatant (antibody, mouse IgG2b, V domains shown)
VH: B1 VH
VL: B1 VL
notes: Tested as supernatant of the hybridoma before subcloning; mouse IgG2b kappa; also called ML129-20B10.3F4
B3: 14A9 hybridoma supernatant (antibody, mouse IgG1, V domains shown)
VH: EVQLVESGGGAVKPGGSLTLSCAASGFTFSNHYMYWVRQTPEKRLEWVASISDGGAYTFYPDTVKGRFTISRDNVNNNLYLQMRHLKSEDTAMYYCTREESANNGFAFWGQGTLVTVSA
VL: B1 VL with V30L, Q31H, K50N, K55R, S97A
notes: Tested as supernatant of the hybridoma before subcloning; mouse IgG1 kappa; also called ML130-14A9.5B12
B4: PR-1254977 (antibody, mouse IgG1, V domains shown)
VH: EVQLQQSGAELVKPGASVKLSCTASGFNIKDTYIYWVKQRPEQGLEWIGRIDPANGNTIYASKFQGKASITADTSSNTAYMQLSSLTSGDTAVYYCAGYGYYAYWGQGTTLTVSS
VL: DVVLTQTPLSLPVNIGDQASISCKSTKSLLNGDGFTYLDWYLQKPGQSPQLLIYLVSNRFSGVPDRFSGSGSGTDFTLKISRVEAEDLGVYYCFESNYLFTFGSGTKLEMKR
notes: also called 21D4; ML129-21D4.4A11
B5: 23F1 hybridoma supernatant (antibody, mouse IgG1, V domains shown)
VH: B4 VH with S69T
VL: B4 VL
notes: Tested as supernatant of the hybridoma before subcloning; mouse IgG1 kappa; also called ML129-23F1.4G3
B6: 21D4 hybridoma supernatant (antibody, mouse IgG1, V domains shown)
VH: B4 VH
VL: B4 VL
notes: Tested as supernatant of the hybridoma before subcloning; mouse IgG1 kappa; also called ML129-21D4.4A11
B7: PR-1254973 (antibody, mouse IgG2b, V domains shown)
VH: QVQLQQPGAELVKPGASVKLSCKASGYTFTNYWMHWVKQRPGQGLEWIGRIDPYGGGTKHNEKFKRKATVTADKSSSTAYILLSSLTSEDSAVYYCTRSGYDYYFDVWGTGTTVTVSS
VL: DIQMTQSPASLSASVGETVTVTCRASENIYSFLAWHQQKQGKSPQLLVYNANTLAEGVPSRFSGSGSGTQFSLKINSLQPEDFGSYYCQHHFGTPFTFGSGTKLEIKR
notes: also called 2B12; ML129-2B12.5G9
B8: 3F7 hybridoma supernatant (antibody, mouse IgG1, V domains shown)
VH: QVQLKESGPGLVAPSQSLSITCTVSGFSLTGYNINWVRQPPGKGLEWLGMIWGYGDTDYNSALKSRLSISKDNSKSQVFLKMNSLQTDDTARYYCARDHYGGNDWYFDVWGTGTTVTVSS
VL: DIQMTQTTSSLSASLGDRVTITCRASQDITNYLNWYQQKPDGTVKLLIYYTSRLHSGVPSRFSGSGSGTDYSLTISNLDQEDIATYFCQQGKTLPRTFGGGTKLEIKR
notes: Tested as supernatant of the hybridoma before subcloning; mouse IgG1 kappa; also called ML130-3F7.4A8

What was measured:
human β NGF [1] = target: T2, human β NGF (human, UniProt P01138 122-241, biotinylated in the TrkA inhibition ELISA (sites not given)); experiment: TrkA inhibition ELISA; biotin-hNGF bound to rat TrkA/Fc; supernatant 5-fold
Method: (§1) The plates were washed three times with PBS/Tween. The plates were blocked with 200 μl/well of 2% milk in PBS for 1 hour at room temperature. The plates were washed three times as above. Rat TrkA/Fc chimera (R&D Systems, catalog #1056-TK) was added at 1 μg/ml (50 μl/well) in PBS/0.1% BSA and then incubated for 1 hour at room temperature. Biotinylated human NGF was titered and pre-incubated with anti-NGF antibody supernatants diluted 1-fold, 5-fold, and 25-fold, or purified anti-NGF mAbs diluted to 0.08, 0.4, 2, or 10 μg/ml for 1 hour at room temperature on a plate shaker. The negative control was unrelated conditioned supernatant. The positive control was sera from a mouse immunized with NGF. The plates were washed and then 50 μl of each biotinylated NGF/Ab mix was added to the appropriate wells. The plates were incubated for 1 hour at room temperature. The plates were washed. […] The plates were incubated for 30 min at room temperature. The plates were washed. 50 μl of TMB (Invitrogen, cat #00-2023) was added and the reaction was stopped using 2N H₂SO₄ (VWR, cat # BDH3500-1). The absorbance at 450 nm was read on a Spectromax 2E plate reader (Molecular Devices), and the absorbance readings are shown in Table 5 The numerical value indicates binding of biotinylated human β NGF to rat TrkA/Fc chimera.

human β NGF [2] = target: T2, human β NGF; experiment: TrkA inhibition ELISA; biotin-hNGF bound to rat TrkA/Fc; supernatant 25-fold
Method: as §1

human β NGF [3] = target: T2, human β NGF; experiment: TrkA inhibition ELISA; biotin-hNGF bound to rat TrkA/Fc; supernatant 1-fold
Method: as §1

recombinant canine β NGF [4] = target: T1, recombinant canine β NGF; experiment: direct ELISA, canine NGF coated at 1 µg/ml, mAb at 10 µg/ml
Method: (§2) To determine if purified mouse anti-NGF mAbs bind to canine β NGF, ELISA plates were coated with 50 μl/well of canine NGF (Abbott Laboratories) at 1 μg/ml in PBS and incubated over night at 4° C. The plates were washed three times with PBS+Tween buffer. The plates were blocked with 200 μl/well of 2% milk in PBS for 1 hour at room temperature. The plates were washed three times as above. Purified antibodies were diluted to 0.4, 2, or 10 μg/ml. 50 μl of each concentration of purified antibody was added to the plates. The plates were incubated for 1 hour at room temperature. The plates were washed. 50 μl of a 5000-fold diluted goat anti-mouse IgG Fc-HRP (Thermo, catalog #31439) was added. The plates were incubated for 1 hour at room temperature. 50 μl of TMB (Invitrogen, catalog #00-2023) was added and the reaction was stopped using 2N H₂SO₄ (VWR, catalog # BDH3500-1). The absorbance at 450 nm was read on a Spectromax 2E plate reader (Molecular Devices). The results are shown in Table 9, and the numerical value indicates binding of mouse anti-NGF antibodies to canine β NGF.

recombinant canine β NGF [5] = target: T1, recombinant canine β NGF; experiment: SPR (Biacore), mAb captured on goat anti-mouse IgG Fc, canine NGF injected; Expt 2
Method: (§3) A biomolecular protein interaction analysis was used to evaluate the binding kinetics of the interaction between the purified anti-NGF hybridoma antibodies and recombinant canine β NGF. The antibodies were captured using a goat anti-mouse IgG FC (10000 RU) surface which was directly immobilized to a CM5 chip using an amine coupling procedure according to the manufacturer's instructions (Biacore). A sample size of 5 μl of antibody at a concentration of 1 μg/ml was captured at 10 μl minute. Recombinant canine NGF was used as the antigen. Canine NGF was injected at 75 μl/min (concentration range: 5-0.039 nM) for mouse antibodies. The association rate was monitored for 3.3 minutes and the dissociation rate was monitored for 10 minutes. Aliquots of canine NGF were also simultaneously injected over a reference reaction CM surface to record any nonspecific binding background. The instrument sensitivity for on-rate is I×IO⁷, such that any on-rate that is faster than I×IO⁷ may not be accurately measured; the instrument sensitivity for off-rate is […], such that any off-rate that is slower than 1×10⁻⁶ may not be accurately measured. Therefore, an on-rate that is faster than 1×10⁷ is recorded as >1×10⁷ and an off-rate that is slower than 1×10⁻⁶ is recorded as <1×10⁻⁶.

recombinant canine β NGF [6] = target: T1, recombinant canine β NGF; experiment: direct ELISA, canine NGF coated at 1 µg/ml, mAb at 0.4 µg/ml
Method: as §2

recombinant canine β NGF [7] = target: T1, recombinant canine β NGF; experiment: cell-based or functional assay
recombinant canine β NGF [8] = target: T1, recombinant canine β NGF; experiment: SPR (Biacore), mAb captured on goat anti-mouse IgG Fc, canine NGF injected; Average
Method: as §3

recombinant canine β NGF [9] = target: T1, recombinant canine β NGF; experiment: cell-based or functional assay
recombinant canine β NGF [10] = target: T1, recombinant canine β NGF; experiment: SPR (Biacore), mAb captured on goat anti-mouse IgG Fc, canine NGF injected; Expt 1
Method: as §3

recombinant canine β NGF [11] = target: T1, recombinant canine β NGF; experiment: direct ELISA, canine NGF coated at 1 µg/ml, mAb at 2 µg/ml
Method: as §2

T2 sequence (P01138 122-241 limits assumed): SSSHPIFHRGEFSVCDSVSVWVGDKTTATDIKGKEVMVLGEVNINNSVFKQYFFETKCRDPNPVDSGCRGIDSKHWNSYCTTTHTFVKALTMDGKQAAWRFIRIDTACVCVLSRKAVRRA

Molecule	absorbance at 450 nm (human β NGF [1])	absorbance at 450 nm (human β NGF [2])	absorbance at 450 nm (human β NGF [3])	absorbance at 450 nm (recombinant canine β NGF [4]) [A450]	Kd (recombinant canine β NGF [5]) [nM]	koff (recombinant canine β NGF [5]) [s⁻¹]	kon (recombinant canine β NGF [5]) [M⁻¹ s⁻¹]	absorbance at 450 nm (recombinant canine β NGF [6]) [A450]	PathHunter IC50 (441 pM canine NGF) (recombinant canine β NGF [7]) [nM]	SureFire pERK IC50 (128 pM canine β NGF) (recombinant canine β NGF [7])	Kd (recombinant canine β NGF [8]) [nM]	koff (recombinant canine β NGF [8]) [s⁻¹]	kon (recombinant canine β NGF [8]) [M⁻¹ s⁻¹]	IC50, canine NGF-induced TF-1 cell proliferation (70 pM canine NGF) (recombinant canine β NGF [9])	Kd (recombinant canine β NGF [10]) [nM]	koff (recombinant canine β NGF [10]) [s⁻¹]	kon (recombinant canine β NGF [10]) [M⁻¹ s⁻¹]	absorbance at 450 nm (recombinant canine β NGF [11]) [A450]
unrelated conditioned supernatant (negative control)	0.456 OD450 and 0.336 OD450 and 0.388 OD450	0.462 OD450 and 0.318 OD450 and 0.386 OD450	0.465 OD450 and 0.372 OD450 and 0.386 OD450	–	–	–	–	–	–	–	–	–	–	–	–	–	–	–
B1	–	–	–	0.154	< 0.321	0.00321	> 1e+07	0.071	0.313	0.228 nM	< 0.318	0.00318	> 1e+07	0.303 nM	< 0.314	0.00314	> 1e+07	0.091
B2	0.2 OD450	0.289 OD450	0.166 OD450	–	–	–	–	–	–	–	–	–	–	–	–	–	–	–
B3	0.208 OD450	0.376 OD450	0.121 OD450	–	–	–	–	–	–	–	–	–	–	–	–	–	–	–
B4	–	–	–	0.552	< 0.016	0.00016	> 1e+07	0.223	0.181	17.6 pM	< 0.015	0.00015	> 1e+07	0.217 nM	< 0.0139	0.000139	> 1e+07	0.414
B5	0.14 OD450	0.276 OD450	0.108 OD450	–	–	–	–	–	–	–	–	–	–	–	–	–	–	–
B6	0.242 OD450	0.404 OD450	0.133 OD450	–	–	–	–	–	–	–	–	–	–	–	–	–	–	–
B7	–	–	–	0.905	< 0.0138	0.000138	> 1e+07	0.769	0.143	18.8 pM	< 0.013	0.00013	> 1e+07	39 pM	< 0.0121	0.000121	> 1e+07	0.836
B8	0.083 OD450	0.149 OD450	0.056 OD450	–	–	–	–	–	–	–	–	–	–	–	–	–	–	–
